Data: US20110200585A1 (GlaxoSmithKline, published 2011)
Numbering of substitutions follows the chain as printed.

B1: parental 1A11 monoclonal antibody (antibody, V domains shown)
VH: EVQLQQSGPELLKPGASMKISCKASGYSFTGYTMNWVKQSHGKNLEWIGLINPYNGVTSYNQKFKGKATLTVAKSSSTAYMELLSLTSEDSAVYYCARGDGNYWYFDVWGAGTTVTVSS
VL: EIVLTQSPAITAASLGQKVTITCSASSSVTYMHWYQQKSGTSPKPWIYEISKLASGVPVRFSGSGSGTSYSLTISSMEAEDAAIYYCQEWNYPYTFGGGTKLEIK
B2: 1A11 H3L4 (antibody, IgG1)
heavy: not shown
light: EIVLTQSPATLSLSPGERATLSCSASSSVTYMHWYQQKPGQAPRPLIYEISKLASGIPARFSGSGSGTDFTLTISSLEPEDFAVYYCQEWNYPYTFGGGTKVEIKRTVAAPSVFIFPPSDEQLKSGTASVVCLLNNFYPREAKVQWKVDNALQSGNSQESVTEQDSKDSTYSLSSTLTLSKADYEKHKVYACEVTHQGLSSPVTKSFNRGEC
notes: Humanised IgG1 kappa; also called BPC1142; anti-IL7R 1A11 H3L4; copies: 2 + 2
B3: 1A11 H3L4Fc (antibody)
heavy: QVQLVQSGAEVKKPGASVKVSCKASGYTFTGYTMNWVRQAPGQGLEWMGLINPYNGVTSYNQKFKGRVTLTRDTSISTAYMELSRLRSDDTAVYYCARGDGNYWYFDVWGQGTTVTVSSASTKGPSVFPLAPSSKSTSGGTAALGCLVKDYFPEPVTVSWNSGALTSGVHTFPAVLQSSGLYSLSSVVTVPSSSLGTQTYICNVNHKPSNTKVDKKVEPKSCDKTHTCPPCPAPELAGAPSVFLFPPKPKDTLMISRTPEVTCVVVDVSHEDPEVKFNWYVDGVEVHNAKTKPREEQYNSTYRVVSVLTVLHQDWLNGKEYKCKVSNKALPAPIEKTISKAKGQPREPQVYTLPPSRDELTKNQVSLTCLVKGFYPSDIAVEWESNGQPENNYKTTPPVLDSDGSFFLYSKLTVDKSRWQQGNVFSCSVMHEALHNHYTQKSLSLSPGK
light: B2 light
notes: also called Fc-disabled anti-IL7R mAb; Fc-disabled 1A11 H3L4; copies: 2 + 2

Assays:
[1] = biological target: T1, human IL-7Rα (CD127) on cells (human, UniProt P16871 21-459); assay: cell-based or functional assay
T1 chain: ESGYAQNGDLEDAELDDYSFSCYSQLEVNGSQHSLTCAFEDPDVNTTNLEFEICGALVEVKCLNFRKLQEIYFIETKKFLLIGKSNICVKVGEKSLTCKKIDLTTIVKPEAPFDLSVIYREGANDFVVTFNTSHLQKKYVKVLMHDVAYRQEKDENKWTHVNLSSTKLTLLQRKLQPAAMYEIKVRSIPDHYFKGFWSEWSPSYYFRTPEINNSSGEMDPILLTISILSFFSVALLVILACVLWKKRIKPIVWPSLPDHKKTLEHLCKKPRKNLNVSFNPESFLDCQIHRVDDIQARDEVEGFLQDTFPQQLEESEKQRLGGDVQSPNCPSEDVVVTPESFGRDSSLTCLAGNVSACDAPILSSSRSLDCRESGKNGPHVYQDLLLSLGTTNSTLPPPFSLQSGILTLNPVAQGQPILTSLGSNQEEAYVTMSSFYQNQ

Human FcRn = Human FcRn (human, UniProt P55899 24-297; P61769 21-119, limits assumed); assay: SPR, ProteOn XPR36; antibody amine-coupled to GLM chip, FcRn 8-2048 nM as analyte, equilibrium fit, pH 6.0
Sequence of Human FcRn (P55899 24-297 limits assumed, chain 1 of 2): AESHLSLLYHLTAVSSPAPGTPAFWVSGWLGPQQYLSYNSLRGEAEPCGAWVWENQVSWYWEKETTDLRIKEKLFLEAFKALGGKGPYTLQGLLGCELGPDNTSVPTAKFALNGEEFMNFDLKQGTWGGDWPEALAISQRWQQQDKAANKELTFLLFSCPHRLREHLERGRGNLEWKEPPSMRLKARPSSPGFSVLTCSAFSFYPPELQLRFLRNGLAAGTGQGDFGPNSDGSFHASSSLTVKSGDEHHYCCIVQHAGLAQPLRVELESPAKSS
Sequence of Human FcRn (P61769 21-119 limits assumed, chain 2 of 2): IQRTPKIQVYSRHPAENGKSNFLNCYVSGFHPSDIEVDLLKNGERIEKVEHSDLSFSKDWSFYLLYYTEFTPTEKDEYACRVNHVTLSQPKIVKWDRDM
Description: (§1) The work was carried out on the ProteOn XPR36 surface plasmon resonance machine (BioRad). The antibodies to be tested were coupled to a GLM biosensor chip by primary amine coupling. […] All binding sensograms were double referenced with a 0 nM injection (i.e. buffer alone). The data was fitted to the Equilibrium model inherent to the ProteOn analysis software.

Cyno FcRn = Cyno FcRn (cyno, UniProt Q8SPV9 24-297; Q8SPW0 21-119, limits assumed); assay: as above
Description: as §1

Mouse FcRn = biological target: T2, Mouse FcRn (mouse, UniProt Q61559 22-297; P01887 21-119, limits assumed); assay: as above
T2 sequence (looked up) 1: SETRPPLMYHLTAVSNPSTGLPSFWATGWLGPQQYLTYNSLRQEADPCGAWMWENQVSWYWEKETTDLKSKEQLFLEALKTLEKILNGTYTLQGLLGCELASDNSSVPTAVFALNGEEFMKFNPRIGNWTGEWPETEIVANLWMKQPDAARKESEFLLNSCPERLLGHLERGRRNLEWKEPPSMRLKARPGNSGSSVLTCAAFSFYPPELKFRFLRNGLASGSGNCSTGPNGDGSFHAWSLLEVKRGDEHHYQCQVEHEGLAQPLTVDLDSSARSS
T2 sequence (looked up) 2: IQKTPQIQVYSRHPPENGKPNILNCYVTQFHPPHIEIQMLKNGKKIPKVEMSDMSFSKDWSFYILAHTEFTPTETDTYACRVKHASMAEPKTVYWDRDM
Description: as §1

rat FcRn = biological target: T3, rat FcRn (rat, UniProt P13599 23-298; P07151 21-119, limits assumed); assay: as above
T3 sequence (looked up) 1: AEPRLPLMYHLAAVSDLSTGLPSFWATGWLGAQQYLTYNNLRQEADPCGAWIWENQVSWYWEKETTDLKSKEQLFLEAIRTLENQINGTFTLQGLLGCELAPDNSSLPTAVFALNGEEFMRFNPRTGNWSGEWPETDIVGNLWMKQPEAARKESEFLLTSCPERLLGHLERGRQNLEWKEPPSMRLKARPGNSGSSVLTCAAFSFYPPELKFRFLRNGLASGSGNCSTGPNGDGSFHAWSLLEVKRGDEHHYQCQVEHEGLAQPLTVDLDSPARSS
T3 sequence (looked up) 2: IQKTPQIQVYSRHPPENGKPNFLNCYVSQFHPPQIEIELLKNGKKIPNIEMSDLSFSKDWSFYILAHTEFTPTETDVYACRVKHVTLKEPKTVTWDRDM
Description: as §1

Fcγ2a (Arg) = biological target: T4, Fcγ2a (Arg) (UniProt P12318 34-217); assay: SPR, ProteOn XPR36; antibody amine-coupled to GLM chip, receptor 8-2048 nM as analyte, equilibrium fit, pH 7.4
T4 construct: also called Fc Gamma IIa, Arg form
T4 sequence (looked up): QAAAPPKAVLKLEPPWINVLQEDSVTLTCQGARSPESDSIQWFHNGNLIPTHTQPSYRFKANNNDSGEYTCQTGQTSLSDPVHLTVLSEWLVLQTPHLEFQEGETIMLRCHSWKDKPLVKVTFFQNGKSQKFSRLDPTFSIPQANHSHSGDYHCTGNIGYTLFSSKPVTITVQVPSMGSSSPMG
Description: as §1

Fcγ2a (His) [2] = biological target: T5, Fcγ2a (His) (UniProt P12318 34-217); assay: as above
T5 construct: also called Fc Gamma IIa, His form
T5 sequence (looked up): T4 sequence (looked up) with R134H
Description: as §1

Fcγ3a (Phe) [3] = biological target: T6, Fcγ3a (Phe) (UniProt P08637 17-208); assay: as above
T6 construct: also called Fc Gamma IIIa, Phe form
T6 sequence (P08637 17-208): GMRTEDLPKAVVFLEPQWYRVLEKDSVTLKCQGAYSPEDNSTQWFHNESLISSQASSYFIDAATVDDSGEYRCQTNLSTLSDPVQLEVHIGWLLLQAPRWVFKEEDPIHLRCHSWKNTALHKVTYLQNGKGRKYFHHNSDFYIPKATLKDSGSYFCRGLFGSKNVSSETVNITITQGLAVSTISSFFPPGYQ
Description: as §1

Fcγ (Val) [4] = biological target: T7, Fcγ (Val) (UniProt P08637 17-208); assay: as above
T7 sequence (P08637 17-208 F176V): as the sequence (P08637 17-208) above, with F160V counted along it
Description: as §1

Fcγ1 = biological target: T8, Fcγ1 (UniProt P12314 16-288); assay: as above
T8 construct: also called Fc Gamma I
T8 sequence (P12314 16-288): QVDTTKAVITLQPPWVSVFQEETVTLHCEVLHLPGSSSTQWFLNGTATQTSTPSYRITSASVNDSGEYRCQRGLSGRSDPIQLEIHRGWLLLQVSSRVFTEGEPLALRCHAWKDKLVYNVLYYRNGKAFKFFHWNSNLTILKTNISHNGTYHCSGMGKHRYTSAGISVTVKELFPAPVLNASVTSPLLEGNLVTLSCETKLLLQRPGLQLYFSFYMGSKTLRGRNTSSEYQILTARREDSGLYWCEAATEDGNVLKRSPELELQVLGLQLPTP
Description: as §1

Fcγ2a (His) [5] = biological target: T5, Fcγ2a (His); assay: SPR, ProteOn XPR36; antibody amine-coupled to GLM chip, receptor as analyte
Description: as §1

Fcγ3a (Phe) [6] = biological target: T6, Fcγ3a (Phe); assay: as above
Description: as §1

Fcγ (Val) [7] = biological target: T7, Fcγ (Val); assay: as above
Description: as §1

| Binder | IC50 of inhibition of IL-7 induced STAT5 phosphorylation in human PBMC (flow cytometry) [1] [µg/mL] | Kd (Human FcRn) [nM] | Kd (Cyno FcRn) [nM] | Kd (Mouse FcRn) [nM] | Kd (rat FcRn) [nM] | Kd (Fcγ2a (Arg)) [nM] | Kd (Fcγ2a (His) [2]) [nM] | Kd (Fcγ3a (Phe) [3]) [nM] | Kd (Fcγ (Val) [4]) [nM] | Kd (Fcγ1) [nM] | binding result (Fcγ2a (His) [5]) | binding result (Fcγ3a (Phe) [6]) | binding result (Fcγ (Val) [7]) |
| --- | --- | --- | --- | --- | --- | --- | --- | --- | --- | --- | --- | --- | --- |
| B1 | 0.088 |  |  |  |  |  |  |  |  |  |  |  |  |
| B2 |  | 183 | 210 | 192 | 145 | 1250 | 1040 | 990 | 319 | 21.4 |  |  |  |
| B3 |  | 158 | 248 | 207 | 163 |  |  |  |  |  | no binding (tested: up to 2048 nM receptor) | no binding (tested: up to 2048 nM receptor) | no binding (tested: up to 2048 nM receptor) |
